T1: PUF4 RNA-binding domain (Saccharomyces cerevisiae, UniProt P25339 537-888)
T1 sequence: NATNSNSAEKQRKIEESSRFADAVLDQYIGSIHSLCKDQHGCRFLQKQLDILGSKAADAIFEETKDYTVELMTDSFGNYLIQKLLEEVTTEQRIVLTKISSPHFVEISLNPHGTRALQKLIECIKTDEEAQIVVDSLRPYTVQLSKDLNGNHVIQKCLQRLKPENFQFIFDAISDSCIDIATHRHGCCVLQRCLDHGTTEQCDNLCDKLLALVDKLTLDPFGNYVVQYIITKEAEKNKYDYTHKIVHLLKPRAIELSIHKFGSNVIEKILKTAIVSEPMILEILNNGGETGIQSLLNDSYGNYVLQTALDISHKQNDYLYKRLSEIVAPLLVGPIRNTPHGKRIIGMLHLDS


Target: T1, PUF4 RNA-binding domain
Test: Mg; RNA-MaP; 20 mM Na-HEPES pH 7.4, 30 mM KOAc, 0.75 mM MgCl2, 0.1% Tween-20, 5% glycerol, 0.1 mg/mL BSA, 2 mM DTT; 25 C; 0.0125-409.6 nM protein
Conditions: tags: N-His6-TEV cleaved; C-SNAP kept, Cy3B-labelled; label: tethered on chip by stalled RNA polymerase

Binder | Kd [nM]
UCUCUUUGUACUUCGUCUCUU (ssRNA) [Ic_S1_P4E.1_K4.1_C4.1_H4.1_A4.1_[T5C]_[A6T]_F4.1_[T8C]_[A9G]_T4.1] | 424
UCUCUUUGUACUGCGUCUCUU (ssRNA) [Ic_S1_P4E.1_K4.1_C4.1_H4.1_A4.1_[T5C]_[A6T]_[T7G]_F4.1_[T8C]_[A9G]_T4.1] | 1280
UCUCUUUGUACCUUUUCUCUU (ssRNA) [Ic_S1_P4E.1_K4.1_C4.1_H4.1_A4.1_[T5C]_[A6C]_F4.1_[A9T]_T4.1] | 34.8
UCUCUUUGUACCUAUUCUCUU (ssRNA) [Ic_S1_P4E.1_K4.1_C4.1_H4.1_A4.1_[T5C]_[A6C]_F4.1_[T8A]_[A9T]_T4.1] | 24.6
UCUCUUUGUACUCCCUCUCUU (ssRNA) [Ic_S1_P4E.1_K4.1_C4.1_H4.1_A4.1_[T5C]_[A6T]_[T7C]_F4.1_[T8C]_[A9C]_T4.1] | 508
UCUCUUUGUACUCCUUCUCUU (ssRNA) [Ic_S1_P4E.1_K4.1_C4.1_H4.1_A4.1_[T5C]_[A6T]_[T7C]_F4.1_[T8C]_[A9T]_T4.1] | 407
UCUCUUUGUACUAUUUCUCUU (ssRNA) [Ic_S1_P4E.1_K4.1_C4.1_H4.1_A4.1_[T5C]_[A6T]_[T7A]_F4.1_[A9T]_T4.1] | 9.22
UCUCUUUGUACCAUUUCUCUU (ssRNA) [Ic_S1_P4E.1_K4.1_C4.1_H4.1_A4.1_[T5C]_[A6C]_[T7A]_F4.1_[A9T]_T4.1] | 9.07
UCUCUUUGUGUAAAUCUCUU (ssRNA) [Ib_S1_P3E.1_K3.1_C3.1_H3.1_[A4G]_A3.1_F3.1_[T7A]_T3.1] | 202
UCUCUUUGUACUCUGUCUCUU (ssRNA) [Ic_S1_P4E.1_K4.1_C4.1_H4.1_A4.1_[T5C]_[A6T]_[T7C]_F4.1_[A9G]_T4.1] | 30.5
UCUCUUUGUACCUGUUCUCUU (ssRNA) [Ic_S1_P4E.1_K4.1_C4.1_H4.1_A4.1_[T5C]_[A6C]_F4.1_[T8G]_[A9T]_T4.1] | 94
UCUCUUUGUACCUUGUCUCUU (ssRNA) [Ic_S1_P4E.1_K4.1_C4.1_H4.1_A4.1_[T5C]_[A6C]_F4.1_[A9G]_T4.1] | 27.3
UCUCUUUGUACUUGGUCUCUU (ssRNA) [Ic_S1_P4E.1_K4.1_C4.1_H4.1_A4.1_[T5C]_[A6T]_F4.1_[T8G]_[A9G]_T4.1] | 623
UCUCUUUGUACUAAAUCUCUU (ssRNA) [Ic_S1_P4E.1_K4.1_C4.1_H4.1_A4.1_[T5C]_[A6T]_[T7A]_F4.1_[T8A]_T4.1] | 69.7
UCUCUUUGUACUCAGUCUCUU (ssRNA) [Ic_S1_P4E.1_K4.1_C4.1_H4.1_A4.1_[T5C]_[A6T]_[T7C]_F4.1_[T8A]_[A9G]_T4.1] | 738
UCUCUUUGUACCUCGUCUCUU (ssRNA) [Ic_S1_P4E.1_K4.1_C4.1_H4.1_A4.1_[T5C]_[A6C]_F4.1_[T8C]_[A9G]_T4.1] | 575
UCUCUUUGUACUACAUCUCUU (ssRNA) [Ic_S1_P4E.1_K4.1_C4.1_H4.1_A4.1_[T5C]_[A6T]_[T7A]_F4.1_[T8C]_T4.1] | 140
UCUCUUUGUACUAGCUCUCUU (ssRNA) [Ic_S1_P4E.1_K4.1_C4.1_H4.1_A4.1_[T5C]_[A6T]_[T7A]_F4.1_[T8G]_[A9C]_T4.1] | 643
UCUCUUUGUACUAUAUCUCUU (ssRNA) [Ic_S1_P4E.1_K4.1_C4.1_H4.1_A4.1_[T5C]_[A6T]_[T7A]_F4.1_T4.1] | 1.28
UCUCUUUGUACUCCGUCUCUU (ssRNA) [Ic_S1_P4E.1_K4.1_C4.1_H4.1_A4.1_[T5C]_[A6T]_[T7C]_F4.1_[T8C]_[A9G]_T4.1] | 969
UCUCUUUGUACUUCUUCUCUU (ssRNA) [Ic_S1_P4E.1_K4.1_C4.1_H4.1_A4.1_[T5C]_[A6T]_F4.1_[T8C]_[A9T]_T4.1] | 75.2
UCUCUUUGUACUUGUUCUCUU (ssRNA) [Ic_S1_P4E.1_K4.1_C4.1_H4.1_A4.1_[T5C]_[A6T]_F4.1_[T8G]_[A9T]_T4.1] | 51.9
UCUCUUUGUACUUUCUCUCUU (ssRNA) [Ic_S1_P4E.1_K4.1_C4.1_H4.1_A4.1_[T5C]_[A6T]_F4.1_[A9C]_T4.1] | 39.6
UCUCUUUGUACUACCUCUCUU (ssRNA) [Ic_S1_P4E.1_K4.1_C4.1_H4.1_A4.1_[T5C]_[A6T]_[T7A]_F4.1_[T8C]_[A9C]_T4.1] | 478
UCUCUUUGUACUCUAUCUCUU (ssRNA) [Ic_S1_P4E.1_K4.1_C4.1_H4.1_A4.1_[T5C]_[A6T]_[T7C]_F4.1_T4.1] | 3.48
UCUCUUAGUAUAUUUCUCUU (ssRNA) [Ib_S1_P3E.1_K3.1_C3.1_H3.1_[T1A]_A3.1_F3.1_[A8T]_T3.1] | 1220

Binder | Kd [nM]
UCUCUUAGUAUAUGUCUCUU (ssRNA) [Ib_S1_P3E.1_K3.1_C3.1_H3.1_[T1A]_A3.1_F3.1_[A8G]_T3.1] | > 2300
UCUCUUUGUACUGUAUCUCUU (ssRNA) [Ic_S1_P4E.1_K4.1_C4.1_H4.1_A4.1_[T5C]_[A6T]_[T7G]_F4.1_T4.1] | 5.91
UCUCUUCGUAUAUUUCUCUU (ssRNA) [Ib_S1_P3E.1_K3.1_C3.1_H3.1_[T1C]_A3.1_F3.1_[A8T]_T3.1] | 830
UCUCUUUGUACCUCCUCUCUU (ssRNA) [Ic_S1_P4E.1_K4.1_C4.1_H4.1_A4.1_[T5C]_[A6C]_F4.1_[T8C]_[A9C]_T4.1] | 570
UCUCUUUGUACUUGAUCUCUU (ssRNA) [Ic_S1_P4E.1_K4.1_C4.1_H4.1_A4.1_[T5C]_[A6T]_F4.1_[T8G]_T4.1] | 465
UCUCUUUGUACUUGCUCUCUU (ssRNA) [Ic_S1_P4E.1_K4.1_C4.1_H4.1_A4.1_[T5C]_[A6T]_F4.1_[T8G]_[A9C]_T4.1] | 414
UCUCUUUGUACCUCUUCUCUU (ssRNA) [Ic_S1_P4E.1_K4.1_C4.1_H4.1_A4.1_[T5C]_[A6C]_F4.1_[T8C]_[A9T]_T4.1] | 587
UCUCUUUGUACUCACUCUCUU (ssRNA) [Ic_S1_P4E.1_K4.1_C4.1_H4.1_A4.1_[T5C]_[A6T]_[T7C]_F4.1_[T8A]_[A9C]_T4.1] | 1060
UCUCUUUGUACUGCCUCUCUU (ssRNA) [Ic_S1_P4E.1_K4.1_C4.1_H4.1_A4.1_[T5C]_[A6T]_[T7G]_F4.1_[T8C]_[A9C]_T4.1] | 684
UCUCUUUGUACAGCGUCUCUU (ssRNA) [Ic_S1_P4E.1_K4.1_C4.1_H4.1_A4.1_[T5C]_[T7G]_F4.1_[T8C]_[A9G]_T4.1] | 112
UCUCUUUGUAUGUAUCUCUU (ssRNA) [Ic_S1_P3E.1_K3.1_C3.1_H3.1_A3.1_[A6G]_F3.1_T3.1] | 66.5
UCUCUUUGUACUUAUUCUCUU (ssRNA) [Ic_S1_P4E.1_K4.1_C4.1_H4.1_A4.1_[T5C]_[A6T]_F4.1_[T8A]_[A9T]_T4.1] | 34.1
UCUCUUUGUACUGGUUCUCUU (ssRNA) [Ic_S1_P4E.1_K4.1_C4.1_H4.1_A4.1_[T5C]_[A6T]_[T7G]_F4.1_[T8G]_[A9T]_T4.1] | 732
UCUCUUUGUACUCAUUCUCUU (ssRNA) [Ic_S1_P4E.1_K4.1_C4.1_H4.1_A4.1_[T5C]_[A6T]_[T7C]_F4.1_[T8A]_[A9T]_T4.1] | 150
UCUCUUUGUACUAACUCUCUU (ssRNA) [Ic_S1_P4E.1_K4.1_C4.1_H4.1_A4.1_[T5C]_[A6T]_[T7A]_F4.1_[T8A]_[A9C]_T4.1] | 330
UCUCUUUGUACUCGCUCUCUU (ssRNA) [Ic_S1_P4E.1_K4.1_C4.1_H4.1_A4.1_[T5C]_[A6T]_[T7C]_F4.1_[T8G]_[A9C]_T4.1] | 972
UCUCUUUGUACCUAAUCUCUU (ssRNA) [Ic_S1_P4E.1_K4.1_C4.1_H4.1_A4.1_[T5C]_[A6C]_F4.1_[T8A]_T4.1] | 66.3
UCUCUUGGUAUAUUUCUCUU (ssRNA) [Ib_S1_P3E.1_K3.1_C3.1_H3.1_[T1G]_A3.1_F3.1_[A8T]_T3.1] | 1250
UCUCUUUGUACCUACUCUCUU (ssRNA) [Ic_S1_P4E.1_K4.1_C4.1_H4.1_A4.1_[T5C]_[A6C]_F4.1_[T8A]_[A9C]_T4.1] | 56.6
UCUCUUUGUACUGUGUCUCUU (ssRNA) [Ic_S1_P4E.1_K4.1_C4.1_H4.1_A4.1_[T5C]_[A6T]_[T7G]_F4.1_[A9G]_T4.1] | 50.5
UCUCUUUGUACUAUCUCUCUU (ssRNA) [Ic_S1_P4E.1_K4.1_C4.1_H4.1_A4.1_[T5C]_[A6T]_[T7A]_F4.1_[A9C]_T4.1] | 13.8
UCUCUUUGUACUUAGUCUCUU (ssRNA) [Ic_S1_P4E.1_K4.1_C4.1_H4.1_A4.1_[T5C]_[A6T]_F4.1_[T8A]_[A9G]_T4.1] | 43
UCUCUUUGUACUCUUUCUCUU (ssRNA) [Ic_S1_P4E.1_K4.1_C4.1_H4.1_A4.1_[T5C]_[A6T]_[T7C]_F4.1_[A9T]_T4.1] | 33.7
UCUCUUUGUACUGCAUCUCUU (ssRNA) [Ic_S1_P4E.1_K4.1_C4.1_H4.1_A4.1_[T5C]_[A6T]_[T7G]_F4.1_[T8C]_T4.1] | 668
UCUCUUUGUACUUUUUCUCUU (ssRNA) [Ic_S1_P4E.1_K4.1_C4.1_H4.1_A4.1_[T5C]_[A6T]_F4.1_[A9T]_T4.1] | 19.2

From paper PMC9352680, “A comprehensive thermodynamic model for RNA binding by the Saccharomyces cerevisiae Pumilio protein PUF4”
